According to patent US20240157023A1:

Assays:
[1] = molecular target: αvβ3 integrin on human lung fibroblasts (human) (UniProt P06756); experiment: cell-based or functional assay
[2] = molecular target: α5β1 integrin on human lung fibroblasts (human) (UniProt P08648); experiment: cell-based or functional assay
Sequence of UniProt P08648 (P08648 42-1049, chain 1 of 2): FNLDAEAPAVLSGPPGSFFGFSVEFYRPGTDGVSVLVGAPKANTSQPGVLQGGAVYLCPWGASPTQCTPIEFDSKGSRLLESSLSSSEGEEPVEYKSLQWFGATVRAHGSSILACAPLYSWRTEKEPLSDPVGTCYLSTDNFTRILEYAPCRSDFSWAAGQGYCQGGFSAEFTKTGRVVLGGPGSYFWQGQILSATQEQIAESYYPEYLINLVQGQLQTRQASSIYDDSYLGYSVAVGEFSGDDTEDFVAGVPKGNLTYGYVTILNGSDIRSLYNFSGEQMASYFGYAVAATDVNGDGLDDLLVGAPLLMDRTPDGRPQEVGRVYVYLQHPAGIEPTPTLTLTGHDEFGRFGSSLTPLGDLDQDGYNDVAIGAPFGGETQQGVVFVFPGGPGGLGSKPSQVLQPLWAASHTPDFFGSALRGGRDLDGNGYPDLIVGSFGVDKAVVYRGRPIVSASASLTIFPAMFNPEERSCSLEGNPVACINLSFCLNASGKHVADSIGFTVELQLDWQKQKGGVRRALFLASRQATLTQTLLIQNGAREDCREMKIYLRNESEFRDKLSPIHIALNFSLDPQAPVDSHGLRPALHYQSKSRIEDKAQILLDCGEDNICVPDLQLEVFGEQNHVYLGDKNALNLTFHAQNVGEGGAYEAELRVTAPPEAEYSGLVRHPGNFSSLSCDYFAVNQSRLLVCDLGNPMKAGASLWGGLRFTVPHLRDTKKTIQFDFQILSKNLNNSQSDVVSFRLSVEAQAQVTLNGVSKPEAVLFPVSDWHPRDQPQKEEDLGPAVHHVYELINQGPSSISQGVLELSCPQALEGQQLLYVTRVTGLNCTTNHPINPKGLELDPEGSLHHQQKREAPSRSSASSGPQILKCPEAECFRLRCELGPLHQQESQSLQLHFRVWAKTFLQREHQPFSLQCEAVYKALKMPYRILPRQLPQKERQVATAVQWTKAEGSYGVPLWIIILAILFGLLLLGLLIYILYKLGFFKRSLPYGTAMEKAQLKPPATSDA
Sequence of UniProt P08648 (P05556 21-798, chain 2 of 2, further chain): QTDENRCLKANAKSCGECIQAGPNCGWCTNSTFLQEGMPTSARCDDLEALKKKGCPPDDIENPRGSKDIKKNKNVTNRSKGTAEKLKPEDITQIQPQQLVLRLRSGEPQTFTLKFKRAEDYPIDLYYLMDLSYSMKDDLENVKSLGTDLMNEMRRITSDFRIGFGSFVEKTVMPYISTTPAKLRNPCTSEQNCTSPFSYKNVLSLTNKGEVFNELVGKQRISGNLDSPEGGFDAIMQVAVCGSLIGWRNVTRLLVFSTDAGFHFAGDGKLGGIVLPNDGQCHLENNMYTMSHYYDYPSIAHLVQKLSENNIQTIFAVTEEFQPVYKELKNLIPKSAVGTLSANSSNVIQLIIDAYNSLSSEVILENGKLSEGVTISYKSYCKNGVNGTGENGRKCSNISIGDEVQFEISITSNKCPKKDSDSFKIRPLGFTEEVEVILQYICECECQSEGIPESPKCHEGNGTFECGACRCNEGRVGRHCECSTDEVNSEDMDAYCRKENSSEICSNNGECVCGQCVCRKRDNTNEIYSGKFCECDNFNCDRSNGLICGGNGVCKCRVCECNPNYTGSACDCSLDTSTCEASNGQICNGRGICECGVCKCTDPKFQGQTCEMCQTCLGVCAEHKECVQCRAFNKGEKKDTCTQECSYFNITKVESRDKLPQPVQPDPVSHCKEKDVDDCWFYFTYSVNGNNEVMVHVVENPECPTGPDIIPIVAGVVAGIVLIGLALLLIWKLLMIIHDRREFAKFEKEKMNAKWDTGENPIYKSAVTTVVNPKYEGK

Sequence of UniProt P06756 (P06756 31-1048, chain 1 of 2): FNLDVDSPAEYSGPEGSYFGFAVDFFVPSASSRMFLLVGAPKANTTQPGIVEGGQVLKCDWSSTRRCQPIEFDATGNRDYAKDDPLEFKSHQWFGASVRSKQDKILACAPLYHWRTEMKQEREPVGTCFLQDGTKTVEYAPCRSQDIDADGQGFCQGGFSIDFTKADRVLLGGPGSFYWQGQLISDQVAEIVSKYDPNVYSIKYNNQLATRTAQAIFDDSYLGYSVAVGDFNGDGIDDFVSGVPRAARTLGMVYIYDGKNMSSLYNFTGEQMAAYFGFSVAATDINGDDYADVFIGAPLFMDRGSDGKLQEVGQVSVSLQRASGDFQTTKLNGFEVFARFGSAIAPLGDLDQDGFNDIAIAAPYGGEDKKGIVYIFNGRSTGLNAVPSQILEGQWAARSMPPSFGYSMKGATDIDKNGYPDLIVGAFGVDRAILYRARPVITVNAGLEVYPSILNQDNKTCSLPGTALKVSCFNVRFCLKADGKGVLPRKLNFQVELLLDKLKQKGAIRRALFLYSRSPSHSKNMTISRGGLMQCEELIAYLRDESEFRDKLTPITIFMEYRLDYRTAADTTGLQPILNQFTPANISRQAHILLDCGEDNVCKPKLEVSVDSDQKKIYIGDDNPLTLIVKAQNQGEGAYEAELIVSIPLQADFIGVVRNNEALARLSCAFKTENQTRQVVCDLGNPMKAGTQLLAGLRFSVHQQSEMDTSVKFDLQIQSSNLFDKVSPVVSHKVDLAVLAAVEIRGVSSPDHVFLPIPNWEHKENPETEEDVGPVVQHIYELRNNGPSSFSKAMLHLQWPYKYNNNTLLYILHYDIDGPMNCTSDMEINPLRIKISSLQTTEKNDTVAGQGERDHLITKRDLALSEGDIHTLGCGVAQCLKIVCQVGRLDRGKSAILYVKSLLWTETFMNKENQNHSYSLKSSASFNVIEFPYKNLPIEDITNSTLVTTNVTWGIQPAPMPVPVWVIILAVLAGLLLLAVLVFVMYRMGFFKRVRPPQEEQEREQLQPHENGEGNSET
Sequence of UniProt P06756 (P05106 27-788, chain 2 of 2, further chain): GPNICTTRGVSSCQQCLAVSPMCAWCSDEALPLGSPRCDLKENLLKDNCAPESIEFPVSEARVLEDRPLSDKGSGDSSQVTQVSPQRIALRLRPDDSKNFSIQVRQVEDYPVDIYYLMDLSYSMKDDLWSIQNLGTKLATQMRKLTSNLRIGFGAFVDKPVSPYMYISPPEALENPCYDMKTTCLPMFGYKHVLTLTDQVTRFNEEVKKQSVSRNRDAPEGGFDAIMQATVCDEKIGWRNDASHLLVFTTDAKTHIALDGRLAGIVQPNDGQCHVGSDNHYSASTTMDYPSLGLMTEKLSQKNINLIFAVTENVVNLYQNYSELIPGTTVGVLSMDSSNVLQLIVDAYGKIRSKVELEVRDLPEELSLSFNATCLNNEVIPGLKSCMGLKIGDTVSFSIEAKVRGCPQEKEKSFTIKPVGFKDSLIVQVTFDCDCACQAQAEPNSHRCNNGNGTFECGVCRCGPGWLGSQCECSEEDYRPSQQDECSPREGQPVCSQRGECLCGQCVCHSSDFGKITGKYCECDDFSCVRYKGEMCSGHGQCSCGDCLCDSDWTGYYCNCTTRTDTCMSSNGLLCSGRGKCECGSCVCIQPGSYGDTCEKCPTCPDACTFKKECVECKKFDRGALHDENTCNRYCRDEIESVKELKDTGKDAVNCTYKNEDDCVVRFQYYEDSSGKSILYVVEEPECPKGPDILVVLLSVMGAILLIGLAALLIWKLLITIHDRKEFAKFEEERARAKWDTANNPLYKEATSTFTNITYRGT

Row | fibroblast spread area on soft elastic Fn4G hydrogels (3 days) [1] | average fibroblast spread area on Fn9*10 hydrogels (all stiffness and viscoelasticity groups, 3 days) [2] | Substance
1 | 2060 µm^2 |  | Fn4G (recombinant fibronectin fragment of FnIII9 and FnIII10 with four glycine residues inserted in the linker region between them) (ligand)
2 |  | 780 µm^2 | Fn9*10 (recombinant fibronectin fragment of FnIII9 and FnIII10 with a leucine to proline point mutation at position 1408) (ligand)
